Results as given in patent US20100254982A1 (VIVENTIA BIOTECHNOLOGIES, published 2010).

Assays:
[1] = target: Glucose transporter 8 (GLUT8), cancer-associated variant expressed on the surface of cancer cells (VB1-050 antigen) (human) (UniProt Q9NY64); assay: cell-based or functional assay
[2] = target: Glucose transporter 8 (GLUT8), cancer-associated variant expressed on the surface of cancer cells (VB1-050 antigen) (human) (UniProt Q9NY64); assay: flow cytometry saturation curve on antigen-positive cells
[3] = target: T1, Glucose transporter 8 (GLUT8), cancer-associated variant expressed on the surface of cancer cells (VB1-050 … (human, UniProt Q9NY64 1-477)); assay: flow cytometry, kidney tumor cell lines Caki-1, A498, ACHN (mean of 3)
T1 construct: whole, on cells; Endogenous antigen of human tumor cell lines, identified by immunoprecipitation with VB1-050 and mass spectrometry from HepG2 and MCF-7 membranes; Only L12A and L13A are printed with old and new residues; In the immunoprecipitations the membrane preparations were deglycosylated with N-Glycanase; also called VB1-050Ag; VB1-050 Ag
T1 sequence (looked up): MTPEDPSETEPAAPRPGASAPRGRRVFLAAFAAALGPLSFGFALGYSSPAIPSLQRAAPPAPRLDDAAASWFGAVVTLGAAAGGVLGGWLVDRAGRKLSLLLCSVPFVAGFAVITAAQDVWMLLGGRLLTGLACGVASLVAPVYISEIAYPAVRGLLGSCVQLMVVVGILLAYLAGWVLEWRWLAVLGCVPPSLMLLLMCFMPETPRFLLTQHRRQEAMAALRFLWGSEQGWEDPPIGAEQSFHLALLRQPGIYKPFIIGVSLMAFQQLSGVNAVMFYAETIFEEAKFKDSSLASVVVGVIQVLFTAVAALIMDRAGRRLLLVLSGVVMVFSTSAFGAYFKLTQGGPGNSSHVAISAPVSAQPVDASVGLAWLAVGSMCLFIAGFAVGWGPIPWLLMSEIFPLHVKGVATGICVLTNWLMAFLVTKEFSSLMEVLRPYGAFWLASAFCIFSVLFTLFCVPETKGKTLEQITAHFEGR

[4] = target: T1, Glucose transporter 8 (GLUT8), …; assay: flow cytometry, bladder tumor cell lines UM-UC-3, T24 (mean of 2)
[5] = target: T1, Glucose transporter 8 (GLUT8), …; assay: flow cytometry, normal endothelial cell line HUVEC
[6] = target: T1, Glucose transporter 8 (GLUT8), …; assay: flow cytometry, breast tumor cell lines MCF-7, MDA-MB-231, MDA-MB-435S (mean of 3)
[7] = target: T1, Glucose transporter 8 (GLUT8), …; assay: flow cytometry on A-375 cells, surface-bound antibody left after 120 min at 37 °C (internalization experiment)
[8] = target: T1, Glucose transporter 8 (GLUT8), …; assay: flow cytometry, prostate tumor cell lines DU-145, PC-3, LNCaP (mean of 3)
[9] = target: T1, Glucose transporter 8 (GLUT8), …; assay: flow cytometry, lung tumor cell lines A-549, NCI-H460, NCI-H69 (mean of 3)
[10] = target: T1, Glucose transporter 8 (GLUT8), …; assay: flow cytometry, normal lung cell line NHLF
[11] = target: T1, Glucose transporter 8 (GLUT8), …; assay: flow cytometry, colon tumor cell lines HT-29, SW480, WiDr (mean of 3)
[12] = target: T1, Glucose transporter 8 (GLUT8), …; assay: flow cytometry on A-375 cells, cells kept on ice for 120 minutes; above negative control human IgG (4B5)
[13] = target: T1, Glucose transporter 8 (GLUT8), …; assay: flow cytometry on A-375 cells, surface-bound antibody left after 60 min at 37 °C (internalization experiment)
[14] = target: T1, Glucose transporter 8 (GLUT8), …; assay: flow cytometry, liver tumor cell lines SK-HEP-1, Hep-G2 (mean of 2)
[15] = target: T1, Glucose transporter 8 (GLUT8), …; assay: flow cytometry, normal breast cell line HMEC
[16] = target: T1, Glucose transporter 8 (GLUT8), …; assay: flow cytometry competition on antigen-positive cells; competitor VB6-050 fixed at 250 µg/mL, detected with anti-bouganin antibody
[17] = target: T1, Glucose transporter 8 (GLUT8), …; assay: flow cytometry, pancreas tumor cell lines PANC-1, BxPC-3, MIA PaCa-2 (mean of 3)
[18] = target: T1, Glucose transporter 8 (GLUT8), …; assay: flow cytometry, normal kidney cell line HRE
[19] = target: T1, Glucose transporter 8 (GLUT8), …; assay: flow cytometry, head & neck tumor cell lines SCC-15, SCC-25 (mean of 2)
[20] = target: T1, Glucose transporter 8 (GLUT8), …; assay: flow cytometry, ovarian tumor cell lines SK-OV-3, OVCar-3 (mean of 2)
[21] = target: T1, Glucose transporter 8 (GLUT8), …; assay: flow cytometry, stomach tumor cell lines AGS, NCI-N-87, KATO III (mean of 3)
[22] = target: T1, Glucose transporter 8 (GLUT8), …; assay: flow cytometry, melanoma cell lines A-375, SK-MEL-5, SK-MEL-28 (mean of 3)
[23] = target: T1, Glucose transporter 8 (GLUT8), …; assay: flow cytometry, cervix tumor cell lines HeLa, C-41, C-33A (mean of 3)
[24] = target: T1, Glucose transporter 8 (GLUT8), …; assay: flow cytometry titration on A-375 cells, Lineweaver-Burk method
[25] = target: T1, Glucose transporter 8 (GLUT8), …; assay: flow cytometry, rectum tumor cell lines Sw837, NCI-H630 (mean of 2)
[26] = target: T1, Glucose transporter 8 (GLUT8), …; assay: flow cytometry, normal prostate cell line PrEC
[27] = target: T1, Glucose transporter 8 (GLUT8), …; assay: flow cytometry, endometrium tumor cell lines RL-95-2, HEC-1-A (mean of 2)

B1: VB6-050 (soluble Fab-de-bouganin fusion protein derived from VB1-050) (Fab, V domains shown)
VH: EVQLLESGGDLVQPGGSLRLSCAASGFTFSNYAMSWVRQAPGKGLEWVSAITPSGGSTNYADSVKGRFTISRDNSQNTLYLQMNSLRVEDTAVYYCGRVPYRSTWYPLYWGQGTLVTVSS
VL: DIQMTQSPSSLSASVGDRVTITCRASQDISNYLAWFQRKPGKAPKSLIYAASSLHSKVPTQFSGSGSGTDFTLTISSLQPEDFATYYCLQYSTYPITFGGGTKVEIK
How did the IC50 (MTS cytotoxicity assay, 5 days, antigen-positive cells MB-435S) [1] turn out when B1 was run?
The IC50 (MTS cytotoxicity assay, 5 days, antigen-positive cells MB-435S) was 400 nM.

What about the saturation point [2] of the same binder?
The saturation point was 250 µg/mL.

B2: VB1-050 monoclonal antibody (antibody, V domains shown)
VH: B1 VH
VL: DIQMTQSPSSLSASVGDRVTITCRASQDISNYLAWFQRKPGKAPKSLIYAASSLHSKVPTQFSGSGSGTDFTLTISSLQPEDFATYYCLQYSTYPITFGGGTKVEIKR
notes: also called VB1-050 IgG; parental IgG
Which “MF (mean fold increase in median fluorescence over control antibody)” value [3] does the source give for B2 here?
The value was 18.4 fold.

What about the “MF (mean fold increase in median fluorescence over control antibody)” value [4] of the same binder?
Its value is 9.8 fold.

And the “MF (mean fold increase in median fluorescence over control antibody)” value [5]?
Its value is 5 fold.

And the “MF (mean fold increase in median fluorescence over control antibody)” value [6]?
Its value is 29.9 fold.

What about the “Fold-increase in MF” value [7] of the same binder?
Its value is 39.3 fold.

And the “MF (mean fold increase in median fluorescence over control antibody)” value [8]?
Its value is 19.6 fold.

And the “MF (mean fold increase in median fluorescence over control antibody)” value [9]?
Its value is 14.8 fold.

And the “MF (mean fold increase in median fluorescence over control antibody)” value [10]?
Its value is 8.7 fold.

What about the “MF (mean fold increase in median fluorescence over control antibody)” value [11] of the same binder?
The value was 13.3 fold.

And the “Fold-increase in MF” value [12]?
The value was 129 fold.

What about the “Fold-increase in MF” value [13] of the same binder?
Its value is 49.2 fold.

And the “MF (mean fold increase in median fluorescence over control antibody)” value [14]?
Its value is 14.6 fold.

And the “MF (mean fold increase in median fluorescence over control antibody)” value [15]?
Its value is 3.1 fold.

And the IC50 [16]?
Its IC50 is 180 µg/mL.

And the “MF (mean fold increase in median fluorescence over control antibody)” value [17]?
Its value is 7.6 fold.

And the “MF (mean fold increase in median fluorescence over control antibody)” value [18]?
The value was 12.5 fold.

And the “MF (mean fold increase in median fluorescence over control antibody)” value [19]?
Its value is 11.4 fold.

What about the “MF (mean fold increase in median fluorescence over control antibody)” value [20] of the same binder?
Its value is 21.7 fold.

What about the “MF (mean fold increase in median fluorescence over control antibody)” value [21] of the same binder?
Its value is 9.6 fold.

What about the “MF (mean fold increase in median fluorescence over control antibody)” value [22] of the same binder?
The value was 22.7 fold.

What about the “MF (mean fold increase in median fluorescence over control antibody)” value [23] of the same binder?
The value was 11.8 fold.

And the Kd [24]?
The Kd was 49 nM.

And the “MF (mean fold increase in median fluorescence over control antibody)” value [25]?
The value was 15.2 fold.

What about the “MF (mean fold increase in median fluorescence over control antibody)” value [26] of the same binder?
Its value is 2.1 fold.

What about the “MF (mean fold increase in median fluorescence over control antibody)” value [27] of the same binder?
Its value is 7 fold.
